# Columns and labels:
# [1] = target: human (H3-H4)2 tetramer (human) (UniProt P68431); test: MST
# [2] = target: fluorescently labeled H2a(G129C)-H2b dimer (human) (UniProt P04908); test: MST
substance,measurement,setting,value
"human α-Synuclein, full-length (from UniProt P37840 1-140) (natural protein)",Kd,[1],50 nM
αSyn(1-103) (from UniProt P37840 1-103) (domain or fragment),Kd,[1],107 nM
αSyn(1-131) (from UniProt P37840 1-131) (domain or fragment),Kd,[2],32400 nM
αSyn(121-140) peptide (from UniProt P37840 121-140),KD of one of two binding sites,[2],500 nM
same,KD of the other of two binding sites,[2],2600 nM

# From doi:10.1101/2024.10.24.620072
